Source: the RNAGym collection of RNA variant scans (doi:10.1073/pnas.2313332121)

B1: TPR t1 (parent)
chain: GACCAAUCUGCCCUCAGAGCUCGAGAACAUCUUCGGAUGCAGAGGAGGCAGGCUUCGGUGGCGCGAUAGCGCCAACGUCCUCAACCUCCAAUGCAUCCCACCACAUGAUGAUGCCUGAAGAGCCUUGGUUUUUUG

Variants of: B1
Assay: polymerase ribozyme fitness, log enrichment relative to wild type (log ratio); higher = more active; in vitro selection for triplet polymerase activity
Summary of the method: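 Frozen incubation at −7 °C formed the core of a single, triplicate in vitro selection round applied to PCR-built, transcribed mutant libraries of each subunit of a heterodimeric triplet polymerase ribozyme. Extended constructs were gel-excised, captured with streptavidin beads and amplified by RT-PCR, and input and output libraries were Illumina-sequenced with a filter of ≥10 input reads and ≥1 read per output. Fitness is the logarithm of genotype enrichment relative to wild-type enrichment, with inverse-variance-weighted replicate averaging, and the logarithm is base 2.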

In order of falling “polymerase ribozyme fitness (log ratio)” value:
1. C11G G44A A121U  1.52
2. C72G A121C  1.48
3. U9A C11A C56A A95G U106A C123U  1.46
4. U112A A118U G135A  1.33
5. G45A A121U  1.1
6. U9C C79U  0.385
7. U9G G69U C73U U106C  0.373
8. G47C C53U C124A  0.271
9. G71C U112A U133A  0.204
10. U87A C101U  0.0521
11. G48U G57C U130C  0.0456
12. G60A A90C C123U  0.00477
13. C12G A119U  0.00185
14. C4U G120C  -0.0314
15. G57C U116C  -0.186
16. C49U G120C C123G  -0.212
17. C8U A84C G117A  -0.216
18. G48C G69U U130C  -0.222
19. U38G G60U  -0.261
20. U78G C85A G120A  -0.262
21. U21A C72A  -0.312
22. G58A C82U C115A C124U  -0.385
23. C8G A41G C53G G93U  -0.406
24. C13U G71U U78G U133G  -0.454
25. C72A C79A  -0.505
26. C89U C97U  -0.579
27. C12G C88G  -0.624
28. A37U G60A  -0.626
29. C40U C104U  -0.655
30. C12G A37C G60C A83U A91C G120U  -0.68
31. A5U G60C C124U  -0.742
32. A90C U112G  -0.757
33. C12A G122A  -0.788
34. C53A C56A G77C C89G  -0.889
35. C11G C12G A46G G71U  -0.917
36. G19C C40U G93U C114G G122A  -0.927
37. C8G C79A  -0.929
38. C115U G120C  -0.978
39. C49U U78C  -1
40. U81A  -1.01
41. G71U G127U  -1.02
42. C8A G36U U132A  -1.09
43. C8G C13A C85U G135U  -1.16
44. A43G G61A  -1.27
45. C15A G60U U131A  -1.3
46. G63C A90G G93U A118G  -1.31
47. C13G C53G C72U  -1.34
48. A83U G120U U129C  -1.36
49. C70G A119G  -1.37
50. A37U C73G U130G  -1.38
51. C53G C86A A118G  -1.38
52. G10U G61A C123A U126G  -1.39
53. G69U C102A  -1.4
54. G63A C73A A119C G120C  -1.42
55. C13U C85U  -1.48
56. C62A C97U U106A  -1.52
57. C3A G60A  -1.52
58. G44C C49U C88A C124U  -1.53
59. A66C U112C A119C  -1.53
60. C40U C82G  -1.54
61. C3U G71U U125G  -1.58
62. G19A A118G C124G  -1.63
63. C15U G17C C72A A121C  -1.65
64. G10U C70A  -1.66
65. C15A C40U C115U U131A  -1.85
66. G71U C89G  -1.88
67. C13U C53A U92G C101U  -1.94
68. G69C A91G  -1.94
69. C56U U59G C114G  -1.96
70. A90U A100C A119G  -2.07
71. G45C U55A C56A  -2.11
72. G17A G61A C124U  -2.13
73. U9G G69C  -2.16
74. C12A G128C  -2.18
75. G71U C88U U130G U131G  -2.2
76. C70A C97U  -2.23
77. C15G U132C  -2.23
78. C13G C79U  -2.23
79. C40A G127C  -2.27
80. G47A C115U  -2.3
81. C4A C104A  -2.32
82. C62G A95U  -2.37
83. C88A G93C  -2.45
84. C8A A50U C89A A90G  -2.46
85. C28G U78C  -2.53
86. A5U C13U A16G G69C U92G C123A U132A  -2.65
87. U54A C64U A105U  -2.69
88. C73G G113U  -2.74
89. C89U A105G  -2.76
90. G48C G51C G57U  -2.77
91. C15A C104U G110A  -2.85
92. C56G G63A G135C  -2.89
93. C13G G61C  -2.94
94. C70A U106C U129A  -2.95
95. A46G G51U  -2.98
96. G44U A46U A111C  -3.04
97. C3G C22A C124G G128C  -3.09
98. C8U G35A  -3.11
99. G17U C72U  -3.14
100. C15U G63U  -3.19
101. C13A G19U C82A U87G G120A  -3.21
102. C4G C13A C89A U130C  -3.33
103. U54G C94A C114A  -3.33
104. C53U C73G G113C U132C  -3.47
105. A2U A83G  -3.47
106. A43C G77A G127C  -3.5
107. A50G G63U C101G G120C U130G  -3.55
108. U9C C20A A37G G47A U87G G120A G122U  -3.6
109. C20A C79A  -3.62
110. A5U U9C C31U G39A G120U  -3.67
111. C4U C20A G120U  -3.69
112. A18C C72G  -3.9
113. G61A G65A  -3.94
114. U32A C72G  -3.95
115. C11G C22G C53G C70U C82U  -4.01
116. C11U A18G G19C A43G G63U  -4.05
117. C79G C115G  -4.07
118. C31U C86U  -4.08
119. A27U G135U  -4.15
120. C12U U14A G110U G113A U130C  -4.17
121. G61C C70U  -4.17
122. G10A A29G A43U C70U C89A  -4.19
123. A46G G63C G110U U116A U130C  -4.2
124. A95U G117C  -4.23
125. G45C U55C A75U A95G U126A U129A  -4.26
126. C13U A26U G69C  -4.28
127. A43C C56A A66U U112A  -4.32
128. C4G A41U A46C U87G A91U C115A G135U  -4.36
129. G23U C123U  -4.37
130. C79G C89U A91C  -4.46
131. C3A A41U C70A A91C U112G U125G G127U  -4.59
132. C3A C22G A37G A111G  -4.63
133. C34U G110A  -4.68
134. U9G A26U G39U U78C C82G  -4.7
135. U59A U87A G113U A118G  -4.7
136. G10A G23A  -4.78
137. C49G C70G  -4.79
138. C22U A66U G120A  -4.81
139. C3U C20A G57A G60U G117A  -4.91
140. C104A G117C U131C  -4.93
141. U32G G39A U106C  -4.98
142. G57U C98U G110A U112G  -5.09
143. A46G C88U C97A  -5.17
144. C22A G57C G69U C76A  -5.3
145. C13G C22G C53U G60A U92C A118U  -5.33
146. C70U C101U G117C  -5.37
147. A43C C62G  -5.4
148. C40U G71U U92A  -5.4
149. A2U G60A C79U C80A A121G  -5.43
150. C11U C34G A46U G120A A121G  -5.6
151. C8G C70U C80A C94G  -5.61
152. U32C C70G A74C  -5.82
153. A37C C76G G117C A121C  -5.98
154. C102U U109A  -6.07
155. G35C G61C C64A C123G  -6.08
156. C12G G51C G71A  -6.1
157. C22G G57A A68C C80A C101U C124A  -6.21
158. U21A A27C A68G C94A  -6.24
159. C4G U9A C56G U112A G117A G120C  -6.24
160. G35U G69A A105C U106A G120U  -6.28
161. G48A C64U C89G C114U U126G  -6.43
162. C4A C72U U109A C115U  -6.54
163. C28A G39U A43G C56U G61U C64G G120C  -6.64
164. G35A C99A C123A  -6.8
165. A24U A43C G60C A84U G110C U129A  -6.86
166. C28U U59C G61A C123U  -6.95
167. A29G C72G C80G A105C C123G  -7.14
